Data: article PMC3946371

Biological target: Vaccinia virus D4 with non-cleavable N-terminal His-tag, co-expressed with MBP-A20(1-50) (vaccinia virus (Copenhagen strain)) (UniProt P20536)
Assay: SEC-MALS

Substance: First 50 amino acids of vaccinia virus A20, wild type, released from MBP by TEV (from UniProt P20995 1-50) (domain or fragment)
- stoichiometry N: 1
